Experiment [1] addresses T1, recombinant human G-CSF (Genscript) (human, UniProt P09919-2 31-204, limits assumed).
T1 construct: also called hG-CSF; granulocyte colony stimulating factor
T1 sequence (looked up): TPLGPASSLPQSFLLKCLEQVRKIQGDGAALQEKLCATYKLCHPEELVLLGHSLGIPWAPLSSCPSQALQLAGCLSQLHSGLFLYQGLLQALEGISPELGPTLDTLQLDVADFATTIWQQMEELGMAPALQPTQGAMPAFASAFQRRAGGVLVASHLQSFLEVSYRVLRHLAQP
Briefly: SPR (Antigen binding (SPR)); antibody captured on an anti-Fc surface, antigen flowed over.

Experiment [2] addresses T1, recombinant human G-CSF (Genscript). Briefly: SPR (ProteOn), supernatant captured on anti-mouse Fc, human G-CSF analyte, average of two injections. As to the method: (§1) Affinities of clones 2F6, 1B11, 3G5, 10B9, 9B7, 10G1, and 3B3 were measured by SPR. The work was carried out at the National Research Council of Canada (Montreal, Quebec).
(§2) 2.5% supernatants (except variants 1B11.2 and 10B9.1.2 used 4%) were captured on an anti-mouse Fc antibody, flowed with a 30, 10, 3.33, 1.11, and 0.37 nM concentration series of human G-CSF with buffer blank. Association (ka) and dissociation (kd) rates were measured using a BioRad ProteOn™ instrument. Affinity (KD) was calculated as […].

For experiment [3] the target is unchanged. Briefly: SPR (Antigen binding (SPR)); antibody captured on an anti-Fc surface, antigen flowed over; column head Koff (10-4 x s-1).
The target is the same in experiment [4]. Briefly: SPR (ProteOn), supernatant captured on anti-mouse Fc, human G-CSF analyte, injection #2. As to the method: as §1, §2
Experiment [5] has the same target. Briefly: SPR (ProteOn), supernatant captured on anti-mouse Fc, human G-CSF analyte, injection #1. As to the method: as §1, §2

B1: anti-G-CSF antibody clone 1B11 (antibody, V domains shown)
VH: QVHLQQSGAELARPGASVKMSCKASGYTFPIYTMHWIKQRPGQGLEWIGYINPSIGYANYNQKFRDKATLTADKSSSTAYMQLSSLTSEDSAVYYCARGGYGDSLFAYWGQGTLVTVSA
VL: DIVMTQAAFSNPVTLGTSASISCRSSKSLLHSNGITYLYWYLQKPGQSPQLLIYQMSNLASGVPDRFSSSGSGTDFTLRISRVEAEDVGVYYCAQNLELPYTFGGGTKLEIK
notes: Mouse hybridoma monoclonal antibody; also called 1B11.2; 3A3
For B1, the equilibrium dissociation constant (Kd) is 0.06 nM in experiment [1], 0.064 nM in experiment [2], 0.0622 nM in experiment [4] and 0.0663 nM in experiment [5]. In addition, the koff in experiment [3] was determined as 5e-05 s⁻¹; in experiment [4], 4.72e-05 s⁻¹; in experiment [5], 5.15e-05 s⁻¹. In addition, the kon in experiment [4] was 758000 M⁻¹ s⁻¹; in experiment [5], 777000 M⁻¹ s⁻¹.

B2: anti-G-CSF antibody clone 3B3 (antibody, V domains shown)
VH: QVQLQQSGAELARPGASVKMSCKASGYTFTPYTMHWVKQRPGQDLEWIGYINPSINYTNYNQKFKDKATLTADKSSSTAYMQLSSLTSEDSAVYFCARRGSYGNFDYWGQGTTLTVSS
VL: DIVMTQAAFSNPVTLGTSASISCRSNKSLLHSNGITYLYWYLQKPGQSPQLLIYQMSNLASGVPDRFSSSGSGTDFTLRISRVEAEDVGVYYCAQNLELPLTFGAGTKLELK
notes: Mouse hybridoma monoclonal antibody; also called 3B3.2; 3B2
Take B2: in experiment [2], the Kd was determined as 0.31 nM. In experiment [4], the Kd stood at 0.293 nM, the koff worked out at 0.000286 s⁻¹ and the on-rate constant (kon) worked out at 976000 M⁻¹ s⁻¹. Also, in experiment [5], the Kd amounted to 0.329 nM, the koff was 0.000301 s⁻¹ and the kon is 914000 M⁻¹ s⁻¹.

B3: humanized 1B11 antibody variant 9 (h1L/h3H) (antibody, V domains shown)
VH: QVQLVQSGAEVKKPGASVKVSCKASGYTFPIYTMHWIKQAPGQGLEWIGYINPSIGYANYNQKFRDRATLTADKSTSTAYMELSSLRSEDTAVYYCARGGYGDSLFAYWGQGTLVTVSS
VL: DIVMTQSPLSLPVTPGEPASISCRSSKSLLHSNGITYLYWYLQKPGQSPQLLIYQMSNLASGVPDRFSGSGSGTDFTLKISRVEAEDVGVYYCAQNLELPYTFGQGTKLEIK
notes: variable domains only; also called clone 9
Consider B3, for which, in experiment [1], the Kd amounted to 0.19 nM. Moreover, the koff in experiment [3] was found to be 0.00017 s⁻¹.

B4: 1B11 antibody variant 1 (cL/cH) (antibody, V domains shown)
VH: QVHLQQSGAELARPGASVKMSCKASGYTFPIYTMHWIKQRPGQGLEWIGYINPSIGYANYNQKFRDKATLTADKSSSTAYMQLSSLTSEDSAVYYCARGGYGDSLFAYWGQGTLVTVSA
VL: DIVMTQAAFSNPVTLGTSASISCRSSKSLLHSNGITYLYWYLQKPGQSPQLLIYQMSNLASGVPDRFSSSGSGTDFTLRISRVEAEDVGVYYCAQNLELPYTFGGGTKLEIK
notes: also called clone 1; chimeric 1B11
For the molecule B4, the Kd in experiment [1] turned out to be 0.1 nM. Also, in experiment [3], the koff was 0.00012 s⁻¹.

B5: humanized 1B11 antibody variant 13 (h2L/h2H) (antibody, V domains shown)
VH: QVQLVQSGAEVKKPGASVKVSCKASGYTFPIYTMHWIRQAPGQGLEWIGYINPSIGYANYNQKFRDRATLTADTSTSTAYMELSSLRSEDTAVYYCARGGYGDSLFAYWGQGTLVTVSS
VL: DIVMTQSPLSLPVTPGEPASISCRSSKSLLHSNGITYLYWYLQKPGQSPQLLIYQMSNLASGVPDRFSSSGSGTDFTLKISRVEAEDVGVYYCAQNLELPYTFGQGTKLEIK
notes: variable domains only; also called clone 13
On to B5, for which the Kd in experiment [1] is 0.2 nM. The koff in experiment [3] amounted to 0.00012 s⁻¹.

B6: humanized 1B11 antibody variant 14 (h2L/h3H) (antibody, V domains shown)
VH: QVQLVQSGAEVKKPGASVKVSCKASGYTFPIYTMHWIKQAPGQGLEWIGYINPSIGYANYNQKFRDRATLTADKSTSTAYMELSSLRSEDTAVYYCARGGYGDSLFAYWGQGTLVTVSS
VL: DIVMTQSPLSLPVTPGEPASISCRSSKSLLHSNGITYLYWYLQKPGQSPQLLIYQMSNLASGVPDRFSSSGSGTDFTLKISRVEAEDVGVYYCAQNLELPYTFGQGTKLEIK
notes: variable domains only; also called clone 14
Regarding B6, the Kd in experiment [1] is 0.15 nM. Further, the koff in experiment [3] stood at 0.00013 s⁻¹.

B7: humanized 1B11 antibody variant 8 (h1L/h2H) (antibody, V domains shown)
VH: QVQLVQSGAEVKKPGASVKVSCKASGYTFPIYTMHWIRQAPGQGLEWIGYINPSIGYANYNQKFRDRATLTADTSTSTAYMELSSLRSEDTAVYYCARGGYGDSLFAYWGQGTLVTVSS
VL: DIVMTQSPLSLPVTPGEPASISCRSSKSLLHSNGITYLYWYLQKPGQSPQLLIYQMSNLASGVPDRFSGSGSGTDFTLKISRVEAEDVGVYYCAQNLELPYTFGQGTKLEIK
notes: variable domains only; also called clone 8
As for B7, the Kd in experiment [1] was determined as 0.29 nM. Also, in experiment [3], the off-rate (koff) is 0.00017 s⁻¹.

B8: humanized 1B11 antibody variant 7 (h1L/h1H) (antibody, V domains shown)
VH: QVQLVQSGAEVKKPGASVKVSCKASGYTFPIYTMHWVRQAPGQGLEWMGYINPSIGYANYNQKFRDRVTITADTSTSTAYMELSSLRSEDTAVYYCARGGYGDSLFAYWGQGTLVTVSS
VL: DIVMTQSPLSLPVTPGEPASISCRSSKSLLHSNGITYLYWYLQKPGQSPQLLIYQMSNLASGVPDRFSGSGSGTDFTLKISRVEAEDVGVYYCAQNLELPYTFGQGTKLEIK
notes: also called clone 7; Variant 7 anti-G-CSF antibody
Turning to B8, the Kd in experiment [1] turned out to be 0.29 nM. Besides, the koff in experiment [3] was 0.00017 s⁻¹.

B9: humanized 1B11 antibody variant 10 (h1L/h4H) (antibody, V domains shown)
VH: QVHLVQSGAEVKKPGASVKVSCKASGYTFPIYTMHWIKQAPGQGLEWIGYINPSIGYANYNQKFRDKATLTADKSTSTAYMELSSLRSEDTAVYYCARGGYGDSLFAYWGQGTLVTVSS
VL: DIVMTQSPLSLPVTPGEPASISCRSSKSLLHSNGITYLYWYLQKPGQSPQLLIYQMSNLASGVPDRFSGSGSGTDFTLKISRVEAEDVGVYYCAQNLELPYTFGQGTKLEIK
notes: variable domains only; also called clone 10
For the molecule B9, the Kd in experiment [1] came out at 0.16 nM. In experiment [3], the koff stood at 0.00015 s⁻¹.

B10: humanized 1B11 antibody variant 15 (h2L/h4H) (antibody, V domains shown)
VH: QVHLVQSGAEVKKPGASVKVSCKASGYTFPIYTMHWIKQAPGQGLEWIGYINPSIGYANYNQKFRDKATLTADKSTSTAYMELSSLRSEDTAVYYCARGGYGDSLFAYWGQGTLVTVSS
VL: DIVMTQSPLSLPVTPGEPASISCRSSKSLLHSNGITYLYWYLQKPGQSPQLLIYQMSNLASGVPDRFSSSGSGTDFTLKISRVEAEDVGVYYCAQNLELPYTFGQGTKLEIK
notes: variable domains only; also called clone 15
For B10, the Kd in experiment [1] turned out to be 0.12 nM. For the same molecule, the koff in experiment [3] is 0.0001 s⁻¹.

Broadly, the Kd is the equilibrium constant for the complex coming apart. Broadly, the koff is the first-order rate constant of dissociation. Usually kon stands for the second-order rate constant of association.

These data come from patent US20230159631A1 (ME THERAPEUTICS, published 2023).
